Data from the nanobody polyreactivity screen of Harvey et al. (2022).

Experiment: yeast display, Sf9 membrane polyspecificity reagent, FACS + sequencing; frameworks hold sequencing errors
Method in brief: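 A nanobody's polyreactivity label depends on the gate it was sorted from. Yeast display cells were stained with 10% biotinylated, detergent-solubilized Sf9 membrane reagent for 1 hour at 4 °C, enriched on streptavidin microbeads and sorted by FACS. The low and high (top ~1%) gates were set on anti-HA fluorescence for expression and streptavidin fluorescence for reagent binding.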

Sequence | polyreactivity (PSR sort gate)
QVQLVESGGGLVQAGGSLRLSCAASGSIFYPYAMGWYRQAPGKERELVAAITTGGGSTYADSVKGRFTISRDNAKNTVYLQMNSLKPEDTAVYYCNTDEYDIGSVYTLWEYDYWGQGTQVTVSS | low polyreactivity
QVQLVESGGGLVQAGGSLRLSCAASGSIFYPYAMGWYRQAPGKERELVAGISRSGASTYYADSVKGRFTISRDNAKNTVYLQMNSLKPEDTAVYYCAADDWTRNYWGQGTEVTVSS | low polyreactivity
QVQLVESGGGLVQAGGSLRLSCAASGSIFYPYAMGWYRQAPGKERELVARISSAGGTYYADSVKGRFTISRDNAKNTVYLQMNSLKPEDTAVYYCAAQARYRYYYWGQGTQVTVSS | high polyreactivity
QVQLVESGGGLVQAGGSLRLSCAASGSIFYQYAMGWYRQAPGKERELVAAISRSGGSTYYADSVKGRFTISRDNAKNTVYLQMISLKPEDTAVYYCAARAVRAAYDYWGLGTQVTVSS | low polyreactivity
QVQLVESGGGLVQAGGSLRLSCAASGSIFYQYAMGWYRQAPGKERELVARITWSSGSTYYADSVKGRFTISRDNAKNTVYLQMNSLKPEDTAVYYCNVVYTGTSYIYYYWGQGTQVTVSS | high polyreactivity
QVQLVESGGGLVQAGGSLRLSCAASGSIFYRNAMGWYRQAPGKERELGAAISWSAARTYYADSVKGRFTISRDNAKNTVYLQMNSLKPEDTAVYYCAAYQTSRYKYEYWGQGTQVTVSS | high polyreactivity
QVQLVESGGGLVQAGGSLRLSCAASGSIFYRNAMGWYRQAPGKERELVAAISARGGRTNYADSVKGRFTISRDNAKNTVYLQMNSLKPEDTAVYYCNTADSWYHRSQAYDYWGQGTQVTVSS | high polyreactivity
QVQLVESGGGLVQAGGSLRLSCAASGSIFYRNAMGWYRQAPGKERELVAAISRGGSTNYADSVKGRFTIERDNAKNTVYLQMNSLKPEDTAVYYCNALYHGDYDYWGQGTQVTVSS | high polyreactivity
QVQLVESGGGLVQAGGSLRLSCAASGSIFYRNAMGWYRQAPGKERELVAAISSDGSTNYADSVKGRFTISRDNAMNTVDLQMNSLKPEDTAVYYCAAPWTQILDYWGQGTQVTVSS | low polyreactivity
QVQLVESGGGLVQAGGSLRLSCAASGSIFYRNAMGWYRQAPGKERELVAGITWRGGRTYYADSVKGRFTISRDNAKNTVYLQMNSLKPEDTAVYYCAATYYWYGHPSRRYDYWGQGTQVTVSS | high polyreactivity
QVQLVESGGGLVQAGGSLRLSCAASGSIFYRNGMGWYRQAPGKERELVAAISGRGGSTNYADSVKGRFTISRDNAKNTVYLQMNSLKPEDTAVYYCNRYGVSNILVRGGYWGQGTQVTVSS | high polyreactivity
QVQLVESGGGLVQAGGSLRLSCAASGSIFYRNVMGWYRPAPGKERELVAVITSDGSTNYADSVKGRFTISRDNAKNTVYLQMNSLKPEVTAVYYCNAHYAFYGPGYPIYWIYEYWGQGTQVTVSS | low polyreactivity
QVQLVESGGGLVQAGGSLRLSCAASGSIFYRNVMGWYRQAPGKERELVAAISQRGGSTYYADSVKGRFTISRDKAKNTVFLQMNSLKPEDTAVYYCNAASRGAGTSIWSWYDLWGQGTQVTVSS | low polyreactivity
QVQLVESGGGLVQAGGSLRLSCAASGSIFYRNVMGWYRQAPGKERELVATISRGGTTNYADSVKGRFTISRDNAKNTVYLQMNSLKPEDTAVYYCALKQSYYFGSYFYGHEYYYWGPGTQVTVSS | low polyreactivity
QVQLVESGGGLVQAGGSLRLSCAASGSIFYRYALGWYRQAPGKERELVAALSYSGGSTYYADSVKGRFTISRDNAKNTVYLQMNSLKPQETAVYYCANDSPPPISDYSRYYGYGYWGQGTQVTVSS | low polyreactivity
QVQLVESGGGLVQAGGSLRLSCAASGSIFYRYAMGWNRQAPGKEKELVAAISRSGGRTYYADSVKGRFTISRDNAMNTVYLQMNSLKPEDTAVYYCAAESTVGTDLGGYSWGQGSQVTVSS | high polyreactivity
QVQLVESGGGLVQAGGSLRLSCAASGSIFYRYAMGWYRQAPGKERELVAAINDSGGGTYYADSVKGRFTISRDNAKNTVYLQMNSLKPEDTAVYYCAAATHNKHTARDDYWGQGTQVTVSS | low polyreactivity
